Assays:
[1] = test system: HeLa Kyoto; test: thermal stability score vs G1/S (z-score of summed log2 fold changes over temperatures); higher = more thermally stable than in G1/S
[2] = test system: HeLa Kyoto; test: solubility change mitosis vs G1/S (difference of NP-40 vs SDS log2 ratios) (log2 ratio difference); higher = more soluble in mitosis
[3] = test system: HeLa Kyoto; test: solubility in G1/S (NP-40 vs SDS abundance) (log2 ratio); higher = more soluble; details: cell cycle stage: G1/S
[4] = test system: HeLa Kyoto; test: melting temperature (median over replicates), in situ; higher = more thermally stable
[5] = cell cycle stage: early G1 (4.5 h after nocodazole release)
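For melting temperature (median over replicates), in situ in this document: HeLa Kyoto cells synchronized by double thymidine or nocodazole block, proteins quantified by TMT10plex mass spectrometry, three independent biological replicates.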
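For solubility change mitosis vs G1/S (difference of NP-40 vs SDS log2 ratios) in this document: synchronized HeLa Kyoto cells (double thymidine block for G1/S, nocodazole release for mitosis), protein amounts in NP-40 versus SDS lysates quantified by mass spectrometry, three biological replicates.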
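For solubility in G1/S (NP-40 vs SDS abundance) in this document: HeLa Kyoto cells arrested at G1/S by double thymidine block, proteins quantified by TMT10plex mass spectrometry in mild NP-40 versus SDS extracts, three biological replicates.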
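For thermal stability score vs G1/S (z-score of summed log2 fold changes over temperatures) in this document: synchronized HeLa Kyoto cells, proteins quantified by TMT10plex mass spectrometry, three biological replicates, mitosis taken 0.5 h after nocodazole release, G1/S directly after double thymidine block.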

Sequence	thermal stability score [1, 5]	thermal stability score ([1]; cell cycle stage: mitosis)	solubility change mitosis (log2) [2]	solubility in G1/S (log2) [3]	melting temperature ([4]; cell cycle stage: G1/S) [°C]	melting temperature ([4]; cell cycle stage: mitosis) [°C]
MAEARKRRELLPLIYHHLLRAGYVRAAREVKEQSGQKCFLAQPVTLLDIYTHWQQTSELGRKRKAEEDAALQAKKTRVSDPISTSESSEEEEEAEAETAKATPRLASTNSSVLGADLPSSMKEKAKAETEKAGKTGNSMPHPATGKTVANLLSGKSPRKSAEPSANTTLVSETEEEGSVPAFGAAAKPGMVSAGQADSSSEDTSSSSDETDVEGKPSVKPAQVKASSVSTKESPARKAAPAPGKVGDVTPQVKGGALPPAKRAKKPEEESESSEEGSESEEEAPAGTRSQVKASEKILQVRAASAPAKGTPGKGATPAPPGKAGAVASQTKAGKPEEDSESSSEESSDSEEETPAAKALLQAKASGKTSQVGAASAPAKESPRKGAAPAPPGKTGPAVAKAQAGKREEDSQSSSEESDSEEEAPAQAKPSGKAPQVRAASAPAKESPRKGAAPAPPRKTGPAAAQVQVGKQEEDSRSSSEESDSDREALAAMNAAQVKPLGKSPQVKPASTMGMGPLGKGAGPVPPGKVGPATPSAQVGKWEEDSESSSEESSDSSDGEVPTAVAPAQEKSLGNILQAKPTSSPAKGPPQKAGPVAVQVKAEKPMDNSESSEESSDSADSEEAPAAMTAAQAKPALKIPQTKACPKKTNTTASAKVAPVRVGTQAPRKAGTATSPAGSSPAVAGGTQRPAEDSSSSEESDSEEEKTGLAVTVGQAKSVGKGLQVKAASVPVKGSLGQGTAPVLPGKTGPTVTQVKAEKQEDSESSEEESDSEEAAASPAQVKTSVKKTQAKANPAAARAPSAKGTISAPGKVVTAAAQAKQRSPSKVKPPVRNPQNSTVLARGPASVPSVGKAVATAAQAQTGPEEDSGSSEEESDSEEEAETLAQVKPSGKTHQIRAALAPAKESPRKGAAPTPPGKTGPSAAQAGKQDDSGSSSEESDSDGEAPAAVTSAQVIKPPLIFVDPNRSPAGPAATPAQAQAASTPRKARASESTARSSSSESEDEDVIPATQCLTPGIRTNVVTMPTAHPRIAPKASMAGASSSKESSRISDGKKQEGPATQVSKKNPASLPLTQAALKVLAQKASEAQPPVARTQPSSGVDSAVGTLPATSPQSTSVQAKGTNKLRKPKLPEVQQATKAPESSDDSEDSSDSSSGSEEDGEGPQGAKSAHTLGPTPSRTETLVEETAAESSEDDVVAPSQSLLSGYMTPGLTPANSQASKATPKLDSSPSVSSTLAAKDDPDGKQEAKPQQAAGMLSPKTGGKEAASGTTPQKSRKPKKGAGNPQASTLALQSNITQCLLGQPWPLNEAQVQASVVKVLTELLEQERKKVVDTTKESSRKGWESRKRKLSGDQPAARTPRSKKKKKLGAGEGGEASVSPEKTSTTSKGKAKRDKASGDVKEKKGKGSLGSQGAKDEPEEELQKGMGTVEGGDQSNPKSKKEKKKSDKRKKDKEKKEKKKKAKKASTKDSESPSQKKKKKKKKTAEQTV [TCOF1]	-3.49	-1.37	0.223	-0.327	53.2	52.9
MAECGRGGAAGGALPTSPGPALGAKGALKAGVGEGGGGGGRLGHGRARYDSGGVSNGDCSLGVSGDEARASPTRGPRGVALAPTPSAVVCTLPRESKPGGLPRRSSIIKDGTKQKRERKKTVSFSSMPTEKKISSASDCINSMVEGSELKKVRSNSRIYHRYFLLDADMQSLRWEPSKKDSEKAKIDIKSIKEVRTGKNTDIFRSNGISDQISEDCAFSVIYGENYESLDLVANSADVANIWVTGLRYLISYGKHTLDMLESSQDNMRTSWVSQMFSEIDVDNLGHITLCNAVQCIRNLNPGLKTSKIELKFKELHKSKDKAGTEVTKEEFIEVFHELCTRPEIYFLLVQFSSNKEFLDTKDLMMFLEAEQGVAHINEEISLEIIHKYEPSKEGQEKGWLSIDGFTNYLMSPDCYIFDPEHKKVCQDMKQPLSHYFINSSHNTYLIEDQFRGPSDITGYIRALKMGCRSVELDVWDGPDNEPVIYTGHTMTSQIVFRSVIDIINKYAFFASEYPLILCLENHCSIKQQKVMVQHMKKLLGDKLYTTSPNVEESYLPSPDVLKGKILIKAKKLSSNCSGVEGDVTDEDEGAEMSQRMGKENMEQPNNVPVKRFQLCKELSELVSICKSVQFKEFQVSFQVQKYWEVCSFNEVLASKYANENPGDFVNYNKRFLARVFPSPMRIDSSNMNPQDFWKCGCQIVAMNFQTPGLMMDLNIGWFRQNGNCGYVLRPAIMREEVSFFSANTKDSVPGVSPQLLHIKIISGQNFPKPKGSGAKGDVVDPYVYVEIHGIPADCAEQRTKTVHQNGDAPIFDESFEFQINLPELAMVRFVVLDDDYIGDEFIGQYTIPFECLQTGYRHVPLQSLTGEVLAHASLFVHVAITNRRGGGKPHKRGLSVRKGKKSREYASLRTLWIKTVDEVFKNAQPPIRDATDLRENMQNAVVSFKELCGLSSVANLMQCMLAVSPRFLGPDNTPLVVLNLSEQYPTMELQGIVPEVLKKIVTTYDMMIQSLKALIENADAVYEKIVHCQKAAMEFHEHLHSIGTKEGLKERKLQKAVESFTWNITILKGQADLLKYAKNETLENLKQIHFAAVSCGLNKPGTENADVQKPRRSLEVIPEKANDETGE [PLCL2]	-0.0105	-0.32	-0.105	-0.0622	50.4	50.2
MAEERPGAWFGFGFCGFGQELGSGRGRQVHSPSPLRAGVDICRVSASWSYTAFVTRGGRLELSGSASGAAGRCKDAWASEGLLAVLRAGPGPEALLQVWAAESALRGEPLWAQNVVPEAEGEDDPAGEAQAGRLPLLPCARAYVSPRAPFYRPLAPELRARQLELGAEHALLLDAAGQVFSWGGGRHGQLGHGTLEAELEPRLLEALQGLVMAEVAAGGWHSVCVSETGDIYIWGWNESGQLALPTRNLAEDGETVAREATELNEDGSQVKRTGGAEDGAPAPFIAVQPFPALLDLPMGSDAVKASCGSRHTAVVTRTGELYTWGWGKYGQLGHEDTTSLDRPRRVEYFVDKQLQVKAVTCGPWNTYVYAVEKGKS [RCCD1]	-0.546	-1.48	-0.0463	0.0194	51.8	54

— the supplement of paper PMC5998384
